We go through three molecules from US9494574B2, “T-cell death-inducing epitopes” (AbGenomics Cooperatief U.A., priority 2004, dated 2016).

In experiment [1] the test system is in vitro activated human T-cells. Description: Induction of death of activated human T-cells by monoclonal antibodies (annexin V staining, FACS, CD3-positive gated). To be noted: for Percentage of apoptotic T-cells: Day 7, in vitro activated human T-cells, hybridoma culture supernatant, 6 hours, annexin V positive among CD3-positive cells; for percentage of in vitro activated T-cells undergoing apoptosis compared to that of untreated cells: annexin V staining and FACS analysis; for induction of death (apoptosis) of in vitro activated human T-cells: result in words. The format is cell-based. The procedure:
Activated T cells (see above) were resuspended to a final concentration of 5×10^5 cells/ml in RPMI medium containing 5 ng/ml of IL-2, and treated with control Ig, m128-9F9, m152-15A7, or m166-43B6.
(§1) It is well known that T-cell death-inducing antibodies can be used as therapeutic agents to treat T-cell-related diseases such as transplantation rejections, autoimmune diseases, and allergy. Three monoclonal antibodies against human T-cells were generated, and the capabilities of these monoclonal antibodies to induce apoptosis of activated human T-cells were examined. Culture supernatants containing monoclonal antibodies secreted by hybridoma cell line m128-9F9, m152-15A7, or m166-43B6 were incubated with either non-activated human T-cells (Day 0) or in vitro activated human T-cells (Day7) for 6 hours. Cells were stained with annexin V after incubation, and subjected to FACS analysis. CD3-positive cells were gated to ensure counting of either in vitro activated human T-cells or resting human T-cells. The apoptotic cells were annexin V staining-positive. […] This capability of inducing apoptosis of activated T-cells yet sparing the resting T-cells is a unique feature of the apoptotic pathway and is a dominating feature of therapeutic reagents targeting T-cell-mediated diseases.
In general terms: In flow cytometry, cells or beads pass a laser one at a time.

Experiment [2] deals with non-activated human T-cells. Description: Apoptosis of non-activated (resting) human T-cells with monoclonal antibodies (annexin V staining, FACS, CD3-positive gated). Format: cell-based. To be noted: for Percentage of apoptotic T-cells: Day 0, non-activated human T-cells, hybridoma culture supernatant, 6 hours, annexin V positive among CD3-positive cells; for effect on non-activated human T-cells: result in words.
From the text: as §1

Entries after “also recorded” stand apart in the source; their conditions may differ.

B1: m166-43B6: mouse monoclonal antibody from hybridoma raised against Concanovalin A-activated human T-cells; induces T-cell apoptosis (antibody, V domains shown)
VL: ENVLTQSPAIMSASPGEKVTMTCRASSTVNSTYLHWFQQKSGASPKLWIYGSSNLASGVPARFSGSGSGTSYSLTISSVEAEDAATYYCQQYSGYPLTFGAGTTLELK
VH: EVQLQQSGPDLVKPGALVKISCKASGYSFTAYYIHWVKQSHGKSLEWIGRVNPNTGGTSYNPKFKGKAILNVDKSSSTAYMELRSLTSEDSAVYYCARSGSPYYRYDDWGQGTTLTVSS
Regarding B1, in experiment [1], the “Percentage of apoptotic T-cells” value turned out to be 49.44%, the “percentage of in vitro activated T-cells undergoing apoptosis compared to that of untreated cells” value (from here on “percentage … of untreated cells”) is recorded as “about doubled” and the “induction of death (apoptosis) of in vitro activated human T-cells” value (“induction of death” below) was “able to induce T-cell apoptosis in vitro; also recorded: induced death of in vitro activated human T-cells”. Besides, in experiment [2], the “Percentage of apoptotic T-cells” value is reported as 6.57% and the “effect on non-activated human T-cells” value is reported as “did not affect non-activated human T-cells”.

B2: m152-15A7: mouse monoclonal antibody from hybridoma raised against Concanovalin A-activated human T-cells; induces T-cell apoptosis (antibody, V domains shown)
VL: DILMTQTPLSLPVSLGDQASISCRSSQSIVHNDGNTYFEWYLQKPGQSPKLLIYKVSNRFSGVPDRFSGSGSGTHFTLNISRVEAEDLGIYYCFQGSYVPLTFGAGTKLELK
VH: DVQLVESGGGLVQPGGSRKLSCAASGFTFSSFGMHWVRQAPEKGLEWVAYINGGSSTIFYANAVKGRFTISRDNPKNTLFLQMTILRSEDTAIYYCGRYASYGGGAMDYWGQGTSVTVSS
With B2, in experiment [1], the “Percentage of apoptotic T-cells” value came out at 51.66%, the “percentage … of untreated cells” value is “about doubled” and the “induction of death” value is “able to induce T-cell apoptosis in vitro; also recorded: induced death of in vitro activated human T-cells”. In experiment [2], the “Percentage of apoptotic T-cells” value worked out at 5.23% and the “effect on non-activated human T-cells” value is reported as “did not affect non-activated human T-cells”.

B3: m128-9F9: mouse monoclonal antibody from hybridoma raised against Concanovalin A-activated human T-cells; induces T-cell apoptosis (antibody, V domains shown)
VL: DVLMTQTPLSLPVSLGDQASISCRSSQSIVNSNGNTYLEWYLQKPGQSPKLLIYKVSNRFSGVPDRFSGSGSGTDFTLKISRVEAEDLGVYYCFQGSHVPWTFGGGTKLEIK
VH: EVQLVETGGGLVQPKGSLKLSCAASGFTFNTNAMNWVRQAPGKGLEWVARIRSKSNNYATYYADSVKDRFTISRDDTQSMIYLQMNNLKTEDTGMYYCVRGGSYWYFDVWGAGTTVTVSS
For the molecule B3, in experiment [1], the “Percentage of apoptotic T-cells” value turned out to be 28.71%, the “percentage … of untreated cells” value was “about doubled” and the “induction of death” value was “able to induce T-cell apoptosis in vitro; also recorded: induced death of in vitro activated human T-cells”. In experiment [2], the “Percentage of apoptotic T-cells” value is reported as 5.82% and the “effect on non-activated human T-cells” value is on record as “did not affect non-activated human T-cells”.
